Values quoted from earlier work in PMC3651761.

Key:
[1] = target: IGF-IR (Homo sapiens) (UniProt P08069)
[2] = target: Met receptor (Homo sapiens) (UniProt P08581)
Chain of UniProt P08581 (P08581 25-932): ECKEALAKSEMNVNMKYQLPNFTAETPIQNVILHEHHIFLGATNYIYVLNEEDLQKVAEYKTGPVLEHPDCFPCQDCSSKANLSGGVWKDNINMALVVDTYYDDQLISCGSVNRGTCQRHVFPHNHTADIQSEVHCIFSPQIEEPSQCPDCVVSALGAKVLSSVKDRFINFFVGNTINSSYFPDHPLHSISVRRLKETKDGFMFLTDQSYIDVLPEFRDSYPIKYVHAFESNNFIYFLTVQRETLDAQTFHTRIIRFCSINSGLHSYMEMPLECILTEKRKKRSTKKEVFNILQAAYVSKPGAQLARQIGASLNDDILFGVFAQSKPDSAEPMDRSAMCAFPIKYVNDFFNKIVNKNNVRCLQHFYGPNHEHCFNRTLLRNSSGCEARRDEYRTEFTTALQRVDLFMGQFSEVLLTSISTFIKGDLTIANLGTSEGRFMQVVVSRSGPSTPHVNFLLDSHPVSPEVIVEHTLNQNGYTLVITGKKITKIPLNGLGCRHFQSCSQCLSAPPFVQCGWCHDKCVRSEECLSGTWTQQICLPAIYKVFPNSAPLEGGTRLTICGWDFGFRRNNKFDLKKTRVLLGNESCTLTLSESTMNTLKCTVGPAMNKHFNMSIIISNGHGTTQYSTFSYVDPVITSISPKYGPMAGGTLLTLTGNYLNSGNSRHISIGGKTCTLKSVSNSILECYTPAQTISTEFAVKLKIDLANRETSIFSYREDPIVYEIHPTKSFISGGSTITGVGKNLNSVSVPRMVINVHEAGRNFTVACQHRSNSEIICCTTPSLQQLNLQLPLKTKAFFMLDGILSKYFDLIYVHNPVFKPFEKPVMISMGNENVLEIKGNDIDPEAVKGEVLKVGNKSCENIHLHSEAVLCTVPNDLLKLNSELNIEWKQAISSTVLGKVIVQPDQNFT

Chain of UniProt P08069 (P08069 31-736, chain 1 of 2): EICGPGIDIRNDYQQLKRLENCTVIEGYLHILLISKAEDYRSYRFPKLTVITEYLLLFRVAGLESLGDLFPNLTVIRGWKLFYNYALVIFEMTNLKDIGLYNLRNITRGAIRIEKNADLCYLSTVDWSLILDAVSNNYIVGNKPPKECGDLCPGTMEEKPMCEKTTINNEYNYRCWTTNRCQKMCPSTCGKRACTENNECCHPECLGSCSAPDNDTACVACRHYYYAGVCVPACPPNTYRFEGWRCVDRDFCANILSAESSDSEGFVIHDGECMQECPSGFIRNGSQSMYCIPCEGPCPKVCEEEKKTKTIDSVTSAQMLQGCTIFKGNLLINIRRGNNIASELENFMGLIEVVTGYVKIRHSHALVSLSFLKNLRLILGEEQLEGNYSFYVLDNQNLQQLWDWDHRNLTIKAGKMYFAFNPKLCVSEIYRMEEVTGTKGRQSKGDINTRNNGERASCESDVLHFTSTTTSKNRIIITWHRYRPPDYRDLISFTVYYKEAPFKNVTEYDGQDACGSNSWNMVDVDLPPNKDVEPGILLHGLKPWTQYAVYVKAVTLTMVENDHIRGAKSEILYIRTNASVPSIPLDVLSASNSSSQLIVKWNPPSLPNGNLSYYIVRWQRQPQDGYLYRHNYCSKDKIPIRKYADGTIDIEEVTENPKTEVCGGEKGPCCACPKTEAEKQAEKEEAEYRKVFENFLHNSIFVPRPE
Chain of UniProt P08069 (P08069 741-935, chain 2 of 2): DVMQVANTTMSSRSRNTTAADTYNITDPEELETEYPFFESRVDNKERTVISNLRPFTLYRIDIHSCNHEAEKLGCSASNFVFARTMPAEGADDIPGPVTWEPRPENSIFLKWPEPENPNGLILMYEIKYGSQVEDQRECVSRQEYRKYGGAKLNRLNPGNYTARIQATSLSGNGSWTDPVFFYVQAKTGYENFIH

Decorin (from UniProt P07585)
Kd [1]: 18 nM | Kd [2]: 2 nM
